The chains are these.
B1: AS170036 VL1VH1-98Q108S (scFv)
scFv: QSALTQPRSVSGSPGQSVTISCAGTSSDVGSENYVSWYQQHPGKAPKLMIYQVNKRASGVPDRFSGSKSGNTASLTISGLQAEDEADYYCASYRSSDQNIVFGGGTKLTVLGGGGSGGGGSGGGGSEVQLVESGGGLVQPGGSLRLSCAASGFTFSSYAMSWVRQAPGKGLEWVSTINSGTGSPYYADSVKGRFTISRDNSKNTLYLQMNSLRAEDTAVYYCAKNFFDGSWFLSPPAMDYWGQGTLVTVSSHHHHHH
notes: also called 39-AS170036 VL1VH1-98Q108S
B2: LD97A (scFv)
scFv: B1 scFv with D97A, Q98H, S234G
notes: AS170036 VL1VH1 scFv mutein
B3: LH98Q (scFv)
scFv: B1 scFv with S234G
notes: AS170036 VL1VH1 scFv mutein; also called AS170036 VL1VH1-VLH98Q
B4: LD97T (scFv)
scFv: B1 scFv with D97T, Q98H, S234G
notes: AS170036 VL1VH1 scFv mutein
B5: LE32G (scFv)
scFv: B1 scFv with E32G, Q98H, S234G
notes: AS170036 VL1VH1 scFv mutein
B6: LD97R (scFv)
scFv: B1 scFv with D97R, Q98H, S234G
notes: AS170036 VL1VH1 scFv mutein
B7: LD97G (scFv)
scFv: B1 scFv with D97G, Q98H, S234G
notes: AS170036 VL1VH1 scFv mutein
B8: LH98A (scFv)
scFv: B1 scFv with Q98A, S234G
notes: AS170036 VL1VH1 scFv mutein; also called AS170036 VL1VH1-VLH98A
B9: LE32D (scFv)
scFv: B1 scFv with E32D, Q98H, S234G
notes: AS170036 VL1VH1 scFv mutein
B10: LD97N (scFv)
scFv: B1 scFv with D97N, Q98H, S234G
notes: AS170036 VL1VH1 scFv mutein
B11: LD97F (scFv)
scFv: B1 scFv with D97F, Q98H, S234G
notes: AS170036 VL1VH1 scFv mutein
B12: LE32S (scFv)
scFv: B1 scFv with E32S, Q98H, S234G
notes: AS170036 VL1VH1 scFv mutein
B13: LD97S (scFv)
scFv: B1 scFv with D97S, Q98H, S234G
notes: AS170036 VL1VH1 scFv mutein
B14: LH98R (scFv)
scFv: B1 scFv with Q98R, S234G
notes: AS170036 VL1VH1 scFv mutein
B15: LE32Y (scFv)
scFv: B1 scFv with E32Y, Q98H, S234G
notes: AS170036 VL1VH1 scFv mutein
B16: LH98Y (scFv)
scFv: B1 scFv with Q98Y, S234G
notes: AS170036 VL1VH1 scFv mutein
B17: LH98F (scFv)
scFv: B1 scFv with Q98F, S234G
notes: AS170036 VL1VH1 scFv mutein; also called AS170036 VL1VH1-VLH98F
B18: LD97K (scFv)
scFv: B1 scFv with D97K, Q98H, S234G
notes: AS170036 VL1VH1 scFv mutein
B19: LH98T (scFv)
scFv: B1 scFv with Q98T, S234G
notes: AS170036 VL1VH1 scFv mutein; also called AS170036 VL1VH1-VLH98T
B20: LH98G (scFv)
scFv: B1 scFv with Q98G, S234G
notes: AS170036 VL1VH1 scFv mutein
B21: LH98N (scFv)
scFv: B1 scFv with Q98N, S234G
notes: AS170036 VL1VH1 scFv mutein
B22: LH98S (scFv)
scFv: B1 scFv with Q98S, S234G
notes: AS170036 VL1VH1 scFv mutein
B23: LH98L (scFv)
scFv: B1 scFv with Q98L, S234G
notes: AS170036 VL1VH1 scFv mutein
B24: LE32W (scFv)
scFv: B1 scFv with E32W, Q98H, S234G
notes: AS170036 VL1VH1 scFv mutein; also called AS170036 VL1VH1-VLE32W
B25: LD97H (scFv)
scFv: B1 scFv with D97H, Q98H, S234G
notes: AS170036 VL1VH1 scFv mutein
B26: LH98W (scFv)
scFv: B1 scFv with Q98W, S234G
notes: AS170036 VL1VH1 scFv mutein
B27: LH98M (scFv)
scFv: B1 scFv with Q98M, S234G
notes: AS170036 VL1VH1 scFv mutein
B28: LY34H (scFv)
scFv: B1 scFv with Y34H, Q98H, S234G
notes: AS170036 VL1VH1 scFv mutein
B29: LH98I (scFv)
scFv: B1 scFv with Q98I, S234G
notes: AS170036 VL1VH1 scFv mutein; also called AS170036 VL1VH1-VLH98I
B30: LH98P (scFv)
scFv: B1 scFv with Q98P, S234G
notes: AS170036 VL1VH1 scFv mutein; also called AS170036 VL1VH1-VLH98P
B31: LH98V (scFv)
scFv: B1 scFv with Q98V, S234G
notes: AS170036 VL1VH1 scFv mutein; also called AS170036 VL1VH1-VLH98V

Positions count from the first letter of the chain named.

One test has as its target T1, AFP158/HLA-A*02:01 complex (human).
T1 construct: flowed as analyte in SPR
The test is described as follows: SPR, fold vs AS170036 VL1VH1.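 Note: crude scFv muteins immobilised on a sensor chip, peptide–MHC complex passed over at several concentrations, binding then buffer-driven dissociation, KD estimated from on- and off-rates.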
Method: (§1) The experiment was carried out as follows. The crude scFv protein were captured onto the sensorchip. Different concentrations (320, 160, 40 nM) of AFP158/HLA-A*02:01 complex flowed over the sensorchip surface, and were allowed to bind the antibody fragment for 100 s followed by injection of the running buffer to allow dissociation of the complex. On-rate (kd) and off-rate (kd) were calculated based on association and dissociation curve, and were used to estimate the equilibrium dissociation constant (KD).
The crude scFv muteins were then subjected to SPR affinity measurement by the method mentioned above.
Regarding B1, the Affinity increase worked out at 8.5 fold.

The target in the next test is T2, AFP158/HLA-A*02:01 complex (human).
T2 construct: flowed over the chip in SPR; also called AFP158 pro
As to the kind of experiment: SPR, KD ratio to AS170036 VL1VH1.
Method: as §1
With B2, the Affinity increase was determined as 0.5 fold.
Turning to B3, the Affinity increase was 3.3 fold.
On the same count and under the same terms, with B4 the figure was 0.7 fold.
On the same count and under the same terms, the result for B5 reads 0.7 fold.
The same measure, in the same setting: with B6 the figure was 0.5 fold; with B7, 0.8 fold.
In the case of B8, the Affinity increase was found to be 2.3 fold.
For the molecule B9, the Affinity increase worked out at 1.3 fold.
On to B10, for which the Affinity increase came to 1 fold.
On the same count and under the same terms, the result for B11 reads 0.5 fold; that for B12, 0.5 fold.
On the same count and under the same terms, with B13 the figure was 0.6 fold.
In the case of B14, the Affinity increase was determined as 1.1 fold.
Still for that read-out and setting: the result for B15 reads 0.6 fold.
Still for that read-out and setting: the result for B16 reads 1.6 fold; that for B17, 3.3 fold; that for B18, 0.6 fold.
The same measure, in the same setting: the result for B19 reads 2.9 fold; that for B20, 0.9 fold.
For the molecule B21, the Affinity increase amounted to 1.5 fold.
For B22, the Affinity increase is 1.4 fold.
Same read-out and setting: the result for B23 reads 1.2 fold; that for B24, 2.4 fold.
The same measure, in the same setting: with B25 the figure was 0.6 fold.
On to B26, for which the Affinity increase amounted to 1.2 fold.
Still for that read-out and setting: the result for B27 reads 1.8 fold; that for B28, 0.5 fold; that for B29, 3.1 fold.
On the same count and under the same terms, with B30 the figure was 3.5 fold; with B31, 3.2 fold.

In another test the target is T2, AFP158/HLA-A*02:01 complex. The test is described as follows: SPR, scFv captured, pMHC in flow.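 Note: complex injected at several concentrations over crude scFv, association then running-buffer dissociation, KD estimated from kinetic on- and off-rate constants.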
Method: as §1
Take B2: the dissociation constant (Kd) came to 470 nM.
On to B3, for which binding was characterised by a dissociation constant (Kd) of 75 nM.
Still for that read-out and setting: with B4 the figure was 360 nM; with B5, 350 nM.
Same read-out and setting: with B6 the figure was 520 nM; with B7, 310 nM.
Still for that read-out and setting: the result for B8 reads 110 nM.
With B9, the Kd amounted to 190 nM.
Same read-out and setting: the result for B10 reads 240 nM; that for B11, 450 nM; that for B12, 500 nM.
On the same count and under the same terms, the result for B13 reads 420 nM; that for B14, 220 nM; that for B15, 430 nM.
B16 yielded a Kd of 160 nM.
Still for that read-out and setting: the result for B17 reads 74 nM.
Same read-out and setting: the result for B18 reads 410 nM.
As to B19, binding was characterised by a dissociation constant (Kd) of 84 nM.
The molecule B20 came in with an equilibrium dissociation constant (Kd) of 280 nM.
Still for that read-out and setting: with B21 the figure was 160 nM.
Same read-out and setting: the result for B22 reads 180 nM; that for B23, 200 nM.
Regarding B24, the Kd is 100 nM.
Same read-out and setting: the result for B25 reads 420 nM; that for B26, 200 nM.
Same read-out and setting: the result for B27 reads 140 nM; that for B28, 540 nM; that for B29, 78 nM.
Still for that read-out and setting: with B30 the figure was 70 nM; with B31, 78 nM.

The target of another test is T2, AFP158/HLA-A*02:01 complex. As to the kind of experiment: SPR, KD ratio to AS170036 VL1VH1.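 Note: crude scFv captured on a sensor chip, peptide–HLA complex passed over at several concentrations, association then buffer dissociation, KD derived from on- and off-rates.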 The source holds these as a separate data set.
Method: as §1
Consider B2, for which the Affinity increase turned out to be 0.5 fold.
With B3, the Affinity increase turned out to be 3.3 fold.
On the same count and under the same terms, the result for B4 reads 0.7 fold; that for B5, 0.7 fold; that for B6, 0.5 fold.
With B7, the Affinity increase turned out to be 0.8 fold.
B8: the Affinity increase was found to be 2.3 fold.
Regarding B9, the Affinity increase was 1.3 fold.
On the same count and under the same terms, the result for B10 reads 1 fold; that for B11, 0.5 fold; that for B12, 0.5 fold.
The same measure, in the same setting: with B13 the figure was 0.6 fold; with B14, 1.1 fold.
For the molecule B15, the Affinity increase stood at 0.6 fold.
For the molecule B16, the Affinity increase worked out at 1.6 fold.
The same measure, in the same setting: with B17 the figure was 3.3 fold.
For the molecule B18, the Affinity increase amounted to 0.6 fold.
Regarding B19, the Affinity increase stood at 2.9 fold.
Same read-out and setting: the result for B20 reads 0.9 fold.
On the same count and under the same terms, with B21 the figure was 1.5 fold; with B22, 1.4 fold; with B23, 1.2 fold.
Still for that read-out and setting: with B24 the figure was 2.4 fold; with B25, 0.6 fold.
As to B26, the Affinity increase amounted to 1.2 fold.
Same read-out and setting: the result for B27 reads 1.8 fold; that for B28, 0.5 fold.
Still for that read-out and setting: with B29 the figure was 3.1 fold; with B30, 3.5 fold.
For B31, the Affinity increase was 3.2 fold.

The target of a further test is T2, AFP158/HLA-A*02:01 complex. The test is described as follows: SPR, scFv captured, pMHC in flow.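 Note: complex injected at several concentrations over crude scFv, association then running-buffer dissociation, KD estimated from kinetic on- and off-rate constants.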 This is another data set of the same source.
Method: as §1
As for B2, binding was characterised by a dissociation constant (Kd) of 470 nM.
B3: the Kd came out at 75 nM.
Turning to B4, the Kd stood at 360 nM.
Same read-out and setting: the result for B5 reads 350 nM; that for B6, 520 nM.
Consider B7, for which the Kd was found to be 310 nM.
B8 yielded a dissociation constant (Kd) of 110 nM.
Same read-out and setting: the result for B9 reads 190 nM; that for B10, 240 nM.
The same measure, in the same setting: the result for B11 reads 450 nM; that for B12, 500 nM; that for B13, 420 nM.
Same read-out and setting: the result for B14 reads 220 nM; that for B15, 430 nM; that for B16, 160 nM.
Molecule B17 registered a Kd of 74 nM.
Still for that read-out and setting: with B18 the figure was 410 nM; with B19, 84 nM.
On the same count and under the same terms, with B20 the figure was 280 nM; with B21, 160 nM; with B22, 180 nM.
The same measure, in the same setting: the result for B23 reads 200 nM; that for B24, 100 nM.
Molecule B25 registered a Kd of 420 nM.
Molecule B26 yielded a Kd of 200 nM.
Same read-out and setting: the result for B27 reads 140 nM; that for B28, 540 nM.
Still for that read-out and setting: with B29 the figure was 78 nM; with B30, 70 nM.
On the same count and under the same terms, the result for B31 reads 78 nM.

In another test the target is T1, AFP158/HLA-A*02:01 complex. The test is described as follows: SPR, crude scFv captured, pMHC analyte.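 Note: pMHC analyte injected at three concentrations, association phase of one hundred seconds, then running buffer for dissociation, rates fitted from both curves, KD derived from the rates.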
Regarding B1, the Kd was 27 nM, the dissociation rate constant (koff) turned out to be 0.0057 s⁻¹ and the kon amounted to 220000 M⁻¹ s⁻¹.

For the origin of these results see patent publication US20240279318A1 (NANJING LEGEND BIOTECH, published 2024).
